These results are taken from publication PMC4509971.

This assay addresses RNH domain of HIV-1 reverse transcriptase (RT residues 427-560) with E438N and T477A (HIV-1). Briefly: SEC-MALS. On the technique in general: SEC sorts molecules by how far they enter the pores of the column.

By stoichiometry N is commonly meant the number of molecules, sites or subunits per partner or assembly. On to “RNH domain of HIV-1 reverse transcriptase (RT residues 427-560) with E438N and T477A (domain or fragment)”, for which the stoichiometry N amounted to 2.
